Article PMC7892883, “Transcription activation by a sliding clamp” (Nature Communications, 2021)

B1: bacteriophage T4 gp33 (coactivator) (natural protein)
chain: MTQFSLNDIRPVDETGLSEKELSIKKEKDEIAKLLDRQENGFIIEKMVEEFGMSYLEATTAFLEENSIPETQFAKFIPSGIIEKIQSEAIDENLLRPSVVRCEKTNTLDFLL
notes: source: E. coli BL21(DE3), pET28a-NH-gp33, purified (Ni-NTA, Mono Q, Superdex 200)
B2: bacteriophage T4 gp55 (promoter specificity factor) (natural protein, UniProt P04524 1-185, looked up)
chain: MSETKPKYNYVNNKELLQAIIDWKTELANNKDPNKVVRQNDTIGLAIMLIAEGLSKRFNFSGYTQSWKQEMIADGIEASIKGLHNFDETKYKNPHAYITQACFNAFVQRIKKERKEVAKKYSYFVHNVYDSRDDDMVALVDETFIQDIYDKMTHYEESTYRTPGAEKKSVVDDSPSLDFLYEAND
notes: also called full-length gp55; wild-type protein
B3: T4 late promoter EMSA scaffold (dsDNA)
DNA 1: CTAATAAAGAGCTCAGCACTATTACTGAGAGTATAAATACTCCTGATACTGAAGCAGCCGGACT
DNA 2: AGTCCGGCTGCTTCAGTATCAGGAGTATTTATACTCTCAGTAATAGTGCTGAGCTCTTTATTAG

Columns and labels:
[1] = biological target: T1, E. coli RNA polymerase β subunit (E. coli, UniProt P0A8V2 1-1342); assay: cryo-EM structure; 0.8 uM E. coli RNAP incubated with 0.8 uM gp55, 0.8 uM gp33 and 0.8 uM gp45 homotrimer 10 min on ice, then with nucleic acid scaffold, gp44/gp62 complex, gp32 and dATP 20 min at 30 °C in transcription buffer; 3D classification gave RPo-gp55 (3.6 Å) and TAC-gp45 (4.5 Å); promoter DNA present; conditions: both partners purified
T1 construct: RNA polymerase β subunit, E. coli; holds the β flap with the flap tip helix (FTH); Stood in the structures as a subunit of RNAP core; also called RNAP β subunit; source: E. coli BL21(DE3) with plasmid pIA900, purified as part of RNAP core enzyme

[2] = biological target: T2, E. coli RNA polymerase β′ subunit (E. coli, UniProt P0A8T7 1-1407); assay: as above; conditions: both partners purified
T2 construct: RNA polymerase β′ subunit, E. coli; Stood in the structures as a subunit of RNAP core; also called RNAP β′ subunit; source: E. coli BL21(DE3) with plasmid pIA900, purified as part of RNAP core enzyme

[3] = biological target: E. coli RNA polymerase core;gp55 H154X (C-terminal region truncated) (Escherichia coli;bacteriophage T4, UniProt P0A7Z4;P0A8V2;P0A8T7;P0A800;P04524 1-329;1-1342;1-1407;1-91;1-153, |); assay: EMSA; heparin 0.1 mg/ml challenge; forms RPo as effectively as full-length gp55; EMSA: 0.4 uM gp55, 0.2 uM RNAP, 0.2 uM DNA in 10 mM HEPES pH 7.5, 50 mM KCl, 5% glycerol, 0.1 mg/ml heparin; DNA 20 min at 37 C, heparin 1 min at 22 C; 5% PAGE; conditions: protein: recombinant;recombinant; tags: beta' C-terminal His tag (stated for pull-down);none stated; chain copies: 2;1;1;1;1; label: none (gel stained); blunt

Binder	binding result [1]	binding result [2]	binding result [3]
B1	binds	binds	
B2		binds	
B3			binds
